Reference: the RNAGym collection of RNA variant scans (doi:10.1101/gr.219683.116)

B1: mRNA-splicing (parent)
chain: AGUUGCUGCUGGGAGCUCCAGCACAGUGAAAUGGACAGAAGGGCAGAGCAA

Variants of: B1
Assay: exon inclusion enrichment index; higher = more inclusion; WT1 exon 5 minigene, HEK293

| Variant | exon inclusion enrichment index |
| --- | --- |
| AGUUGAAGAAGGGAGCUCCAGCACAGUGACUUGGACAGAAGGGCAGAGCAA | 0.986 |
| AGUUGAAGAAGGGAGCUCCAGCACAGUGACCUGGACAGAAGGGCAGAGCAA | 1.38 |
| AGUUGAAGAAGGGAGCUCCAGCACAGUGACGUGGACAGAAGGGCAGAGCAA | 1.45 |
| AGUUGAAGAAGGGAGCUCCAGCACAGUGAAGGGGACAGAAGGGCAGAGCAA | 0.383 |
| AGUUGAAGAAGGGAGCUCCAGCACAGUGAAGCGGACAGAAGGGCAGAGCAA | 2.27 |
| AGUUGAAGAAGGGAGCUCCAGCACAGUGAAGAGGACAGAAGGGCAGAGCAA | 2.95 |
| AGUUGAAGAAGGGAGCUCCAGCACAGUGAGGUGGACAGAAGGGCAGAGCAA | 0.168 |
| AGUUGAAGAAGGGAGCUCCAGCACAGUGAGUUGGACAGAAGGGCAGAGCAA | 0.133 |
| AGUUGAAGAAGGGAGCUCCAGCACAGUGAGCUGGACAGAAGGGCAGAGCAA | 0.0339 |
| AGUUGAAGAAGGGAGCUCCAGCACAGUGAAAUGGACCCAAGGGCAGAGCAA | 0.896 |
| AGUUGAAGAAGGGAGCUCCAGCACAGUGAAAUGGACCUAAGGGCAGAGCAA | 0.426 |
| AGUUGAAGAAGGGAGCUCCAGCACAGUGAAAUGGACCAAAGGGCAGAGCAA | 0.719 |
| AGUUGAAGAAGGGAGCUCCAGCACAGUGAAUUGGACAGAAGGGCAGAGCAA | 0.592 |
| AGUUGAAGAAGGGAGCUCCAGCACAGUGAAGUGGACAGAAGGGCAGAGCAA | 1.04 |
| AGUUGAAGAAGGGAGCUCCAGCACAGUGAACUGGACAGAAGGGCAGAGCAA | 0.898 |
| AGUUGAAGAAGGGAGCUCCAGCACAGUGAAAUGGGAAGAAGGGCAGAGCAA | 0.281 |
| AGUUGAAGAAGGGAGCUCCAGCACAGUGAAAUGGGUAGAAGGGCAGAGCAA | 0.00209 |
| AGUUGAAGAAGGGAGCUCCAGCACAGUGAAAUGGGGAGAAGGGCAGAGCAA | 0.0241 |
| AGUUGAAGAAGGGAGCUCCAGCACAGUGAAAUGGACGGAAGGGCAGAGCAA | 1.54 |
| AGUUGAAGAAGGGAGCUCCAGCACAGUGAAAUGGACCGAAGGGCAGAGCAA | 1.72 |
| AGUUGAAGAAGGGAGCUCCAGCACAGUGAAAUGGACUGAAGGGCAGAGCAA | 0.746 |
| AGUUGAAGAAGGGAGCUCCAGCACAGUGAAAUGGACAGGGGGGCAGAGCAA | 0.0665 |
| AGUUGAAGAAGGGAGCUCCAGCACAGUGAAAUGGACAGGUGGGCAGAGCAA | 0.0506 |
| AGUUGAAGAAGGGAGCUCCAGCACAGUGAAAUGGACAGGCGGGCAGAGCAA | 1.22 |
| AGUUGAAGAAGGGAGCUCCAGCACAGUGAAAUGGACAGAUAGGCAGAGCAA | 0.0256 |
| AGUUGAAGAAGGGAGCUCCAGCACAGUGAAAUGGACAGAUCGGCAGAGCAA | 1.33 |

| Variant | exon inclusion enrichment index |
| --- | --- |
| AGUUGAAGAAGGGAGCUCCAGCACAGUGAAAUGGACAGAUUGGCAGAGCAA | 0.373 |
| AGUUGAAGAAGGGAGCUCCAGCACAGUGAGAUGGACAGAAGGGCAGAGCAA | 0.658 |
| AGUUGAAGAAGGGAGCUCCAGCACAGUGAUAUGGACAGAAGGGCAGAGCAA | 0.433 |
| AGUUGAAGAAGGGAGCUCCAGCACAGUGACAUGGACAGAAGGGCAGAGCAA | 0.809 |
| AGUUGAAGAAGGGAGCUCCAGCACAGUGAAUGGGACAGAAGGGCAGAGCAA | 0.311 |
| AGUUGAAGAAGGGAGCUCCAGCACAGUGAAUCGGACAGAAGGGCAGAGCAA | 1.09 |
| AGUUGAAGAAGGGAGCUCCAGCACAGUGAAUAGGACAGAAGGGCAGAGCAA | 0.0674 |
| AGUUGAAGAAGGGAGCUCCAGCACAGUGAAAUGGACAGAAGGGCAGCGCAA | 1.15 |
| AGUUGAAGAAGGGAGCUCCAGCACAGUGAAAUGGACAGAAGGGCAGCACAA | 0.547 |
| AGUUGAAGAAGGGAGCUCCAGCACAGUGAAAUGGACAGAAGGGCAGCCCAA | 0.797 |
| AGUUGAAGAAGGGAGCUCCAGCACAGUGAAAUGGACAGAAGGGCAGCUCAA | 0.811 |
| AGUUGAAGAAGGGAGCUCCAGCACAGUGGUAUGGACAGAAGGGCAGAGCAA | 0.163 |
| AGUUGAAGAAGGGAGCUCCAGCACAGUGGCAUGGACAGAAGGGCAGAGCAA | 0.273 |
| AGUUGAAGAAGGGAGCUCCAGCACAGUGGGAUGGACAGAAGGGCAGAGCAA | 0.495 |
| AGUUGAAGAAGGGAGCUCCAGCACAGUGAUGUGGACAGAAGGGCAGAGCAA | 0.653 |
| AGUUGAAGAAGGGAGCUCCAGCACAGUGAUUUGGACAGAAGGGCAGAGCAA | 0.426 |
| AGUUGAAGAAGGGAGCUCCAGCACAGUGAUCUGGACAGAAGGGCAGAGCAA | 0.579 |
| AGUUGAAGAAGGGAGCUCCAGCACAGUGAAAUGGACAGAAGGGCCUAGCAA | 0.191 |
| AGUUGAAGAAGGGAGCUCCAGCACAGUGAAAUGGACAGAAGGGCCAAGCAA | 0.367 |
| AGUUGAAGAAGGGAGCUCCAGCACAGUGAAAUGGACAGAAGGGCCCAGCAA | 0.542 |
| AGUUGAAGAAGGGAGCUCCAGCACAGUGAAAUGGACAGCGGGGCAGAGCAA | 0.849 |
| AGUUGAAGAAGGGAGCUCCAGCACAGUGAAAUGGACAGCUGGGCAGAGCAA | 0.533 |
| AGUUGAAGAAGGGAGCUCCAGCACAGUGAAAUGGACAGCCGGGCAGAGCAA | 1.65 |
| AGUUGAAGAAGGGAGCUCCAGCACAGUGAAAUGGACAGGAGGGCAGAGCAA | 0.404 |
| AGUUGAAGAAGGGAGCUCCAGCACAGUGAAAUGGACAGUAGGGCAGAGCAA | 0.0237 |
